According to patent publication US20160237157A1:

How the values were obtained:
[1] = biological target: human FGFR4-FGFR1 chimeric construct (hFGFR4/R1) on BaF3 cells (human) (UniProt P11362); assay: cell-based or functional assay
[2] = biological target: T1, human FGFR4 (soluble, Part B: SPR and FGFR4 ELISA) (human) (UniProt P22455); assay: SPR (BIAcore-2000), antibody immobilized, human FGFR4 injected
T1 sequence: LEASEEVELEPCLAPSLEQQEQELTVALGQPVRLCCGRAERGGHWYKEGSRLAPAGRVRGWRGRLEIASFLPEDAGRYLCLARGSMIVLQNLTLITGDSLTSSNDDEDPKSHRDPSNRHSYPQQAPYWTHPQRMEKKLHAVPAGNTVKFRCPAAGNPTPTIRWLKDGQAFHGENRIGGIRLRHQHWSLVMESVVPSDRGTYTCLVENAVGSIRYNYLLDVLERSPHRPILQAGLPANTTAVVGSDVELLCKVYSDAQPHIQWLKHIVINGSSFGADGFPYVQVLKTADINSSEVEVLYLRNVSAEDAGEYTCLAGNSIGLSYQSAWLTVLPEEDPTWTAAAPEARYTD

[3] = biological target: T2, FGFR4 (solid phase receptor-binding assay) (Homo sapiens (Human)) (UniProt P22455); assay: solid phase receptor-binding assay; LD1 titrated, inhibition of FGF1 binding to FGFR4
T2 sequence: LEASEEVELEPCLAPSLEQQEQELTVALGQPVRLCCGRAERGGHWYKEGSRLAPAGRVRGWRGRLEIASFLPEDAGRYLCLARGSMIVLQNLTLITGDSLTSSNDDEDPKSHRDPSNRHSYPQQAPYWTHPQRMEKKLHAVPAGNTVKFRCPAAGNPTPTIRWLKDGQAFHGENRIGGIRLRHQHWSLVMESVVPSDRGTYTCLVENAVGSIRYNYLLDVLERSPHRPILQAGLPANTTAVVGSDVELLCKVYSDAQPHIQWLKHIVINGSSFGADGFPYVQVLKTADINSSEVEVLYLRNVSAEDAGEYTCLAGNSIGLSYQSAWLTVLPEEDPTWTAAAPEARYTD

[4] = biological target: T2, FGFR4 (solid phase receptor-binding assay) (Homo sapiens (Human)); assay: solid phase receptor-binding assay; LD1 titrated, inhibition of FGF19 binding to FGFR4

B1: chimeric LD1 (chLD1) (antibody, from a related filing, human IgG1, V domains shown)
VH: EVQLQQPGAVLVRPGTSVKLSCKASGYTFTNHWMNWVKQRPGQGLEWIGMIHPSDSETTLDQKFKDKATLTVDKSSSTAYMQLNRPTSEDSAVYYCTRGDISLFDYWGQGTTVTVSS
VL: DIQMTQTTSSLSASLGDRVTITCRTSQDISNFLNWYQQKPDGTFKILISYTSRLHSGVPSRFSGSGSGTDYSLTISTLEQEDFATYFCQQGNALPYTFGGGTKLEIE
For B1, the inhibition of FGF1-stimulated proliferation of BaF3/FGFR4/R1 cells (5 nM FGF1), IC50 [1] was 17.4 nM, the Kd [2] was 0.45 nM and the koff [2] was 0.000173 s⁻¹. It also gave an IC50 [3] of 0.093 nM and an IC50 [4] of 0.102 nM.
